Target: T1, MBP tagged CbbL(1–136) (Halothiobacillus neapolitan (ATCC 23641), UniProt O85040 1-136)
T1 construct: Residues 1-136 (N domain) of RuBisCO large subunit CbbL of Halothiobacillus neapolitan (ATCC 23641); The coat of the ELISA; also called CbbL(N)
T1 sequence (looked up): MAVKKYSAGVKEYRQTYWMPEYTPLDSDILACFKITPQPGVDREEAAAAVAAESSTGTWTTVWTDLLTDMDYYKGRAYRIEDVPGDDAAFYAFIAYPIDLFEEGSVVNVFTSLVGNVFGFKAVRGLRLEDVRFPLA
Assay: ELISA; semi-quantitative; MaxiSorp plates coated with MBP-tagged CbbL(1–136) (30 nM in 0.1 M Na2CO3 pH 9.6, 4 °C, 12 h); CsoS1C-6xHis 5 nM to 5 μM in blocking buffer (1 mM CaCl2, 1% BSA in TBS), 1 h at room temperature; detected by 6xHis tag antibody and anti-mouse IgG-HRP; Hill equation fit; apparent Kd
Settings: both partners purified

Kd: 120 ± 4.6 nM
B1: CsoS1C-6xHis (natural protein, Halothiobacillus neapolitan (ATCC 23641))
chain: MAAVTGIALGMIETRGLVPAIEAADAMTKAAEVRLVGRQFVGGGYVTVLVRGETGAVNAAVRAGADACERVGDGLVAAHIIARVHSEVENILPKAPEA
notes: Carboxysome shell protein CsoS1C of Halothiobacillus neapolitan (ATCC 23641); printed length 98 a.a; not measured in the assay

— publication PMC6180065, “Deciphering molecular details in the assembly of alpha-type carboxysome” (Scientific Reports, 2018)
